Laboratory results taken from paper doi:10.1101/2025.07.10.664112 (bioRxiv, 2025).
Several values for one entry are separate records, joined by “and”; a condition that tells them apart may be missing. Identical values can stand only once.

Molecular target: the molecule itself
Experiment: mass photometry

B1: Heterogeneous nuclear ribonucleoprotein A2/B1 (hnRNPA2B1), full length, tag-free (natural protein, human, UniProt P22626 1-353, looked up)
chain: MEKTLETVPLERKKREKEQFRKLFIGGLSFETTEESLRNYYEQWGKLTDCVVMRDPASKRSRGFGFVTFSSMAEVDAAMAARPHSIDGRVVEPKRAVAREESGKPGAHVTVKKLFVGGIKEDTEEHHLRDYFEEYGKIDTIEIITDRQSGKKRGFGFVTFDDHDPVDKIVLQKYHTINGHNAEVRKALSRQEMQEVQSSRSGRGGNFGFGDSRGGGGNFGPGPGSNFRGGSDGYGSGRGFGDGYNGYGGGPGGGNFGGSPGYGGGRGGYGGGGPGYGNQGGGYGGGYDNYGGGNYGSGNYNDFGNYNQQPSNYGPMKSGNFGGSRNMGGPYGGGNYGPGGSGGSGGYGGRSRY
For B1, the “stoichiometry N” value was 2 and 4.
